Results as given in article PMC8359418, “Genome‐wide analysis of in vivo CcpA binding with and without its key co‐factor HPr in the major human pathogen group A Streptococcus” (Molecular Microbiology, 2020).

B1: HPr endogenous in GAS strains MGAS2221 and 2221-CcpA-V301A (natural protein)
chain: MASKDFHIVAETGIHARPATLLVQTASKFASDITLDYKGKAVNLKSIMGVMSLGVGQGADVTISAEGADAEDAIAAIEETMTKEGLA
notes: Phosphocarrier protein HPr (ptsH) of Streptococcus pyogenes serotype emm1 strain MGAS2221 and its isoallelic derivative; Detected with an anti-HPr antibody; the phosphorylation state of the co-precipitated HPr was not determined (by Phos-tag gels most cellular HPr was unphosphorylated); also called HPr~P; source: endogenous, lysates of cross-linked MGAS2221 and 2221-CcpA-V301A cells

How the values were obtained:
[1] = target: recombinant wild type GAS CcpA (catabolite control protein A) (group A Streptococcus (Streptococcus pyogenes)); assay: SPR; CcpA (3,700 RU) or CcpAV301A (4,200 RU) immobilised on CM5 by amine coupling; HPr or HPrSer46~P injected, 2-fold dilutions 1.25 to 80 uM; PBS pH 7.4, 25°C; steady-state responses fitted to a one-site binding model; BIAcore T200
[2] = target: recombinant GAS CcpA with V301A change (group A Streptococcus (Streptococcus pyogenes)); assay: as above
[3] = target: T1, CcpA endogenous in GAS strain MGAS2221 (Streptococcus pyogenes (endogenous in …, UniProt Q9A118 1-333)); assay: co-IP; GAS strains grown to mid-exponential phase in THY, cross-linked with EGS and formaldehyde, sonicated; precipitated with polyclonal anti-CcpA antibody, Western blot with anti-HPr antibody, quantified (Odyssey); conditions: partners not purified
T1 construct: Catabolite control protein A (CcpA) of Streptococcus pyogenes serotype emm1 strain MGAS2221 (gene content identical to MGAS5005); also called wild type CcpA; source: endogenous, lysate of cross-linked MGAS2221 cells

| Molecule | Kd [1] [µM] | Kd [2] [µM] | fold more HPr co-immunoprecipitated than from strain 2221-CcpA-V301A [3] [fold] |
| --- | --- | --- | --- |
| recombinant GAS HPr (histidine-containing protein), unphosphorylated (natural protein) | 188 | – | – |
| recombinant GAS HPr phosphorylated at Ser46 (natural protein) | 5.8 | 153 | – |
| B1 | – | – | 10 |
